Molecular target: murine SCI/MIP1-α Variant 3 (murine) (UniProt P10855)
Experiment: chromatographic techniques, molecular weight estimate

estimated molecular weight (self-association): 8 kD
Substance: murine SCI/MIP1-α Variant 3 (from UniProt P10855) (ligand)

From patent US20010010935A1
